Results taken from patent publication US9494585B2, “Tools for the identification of Lingo-1, Lingo-2, Lingo-3 and Lingo-4 ligands, and uses thereof” (CENTRE NATIONAL DE LA RECHERCHE SCIENTIFIQUE-CNRS, priority 2010, dated 2016).

Biological target: T1, Lingo-1-RLuc/Lingo-1-YFP dimer (Homo sapiens, UniProt Q96FE5)
T1 construct: expressed in transfected cells; host or cells: HEK-293 (transient calcium phosphate transfection)
Assay: BRET measurement of Lingo-1 dimerization (Lingo-1-RLuc/Lingo-1-YFP) on live transfected HEK-293 cells
Assay type: cell-based
Conditions: for BRET signal obtained between Lingo-1-RLuc and Lingo-1-YFP: HEK-293, HA-tagged construct co-expressed (800 ng), constant donor/acceptor ratio, 48 h after transfection, p<0.001 vs control
Description: For the BRET experiments, the HEK-293 cells cultured in 6-well plates, pre-treated with collagen, are transiently transfected using the calcium phosphate technique. Briefly, the plasmid DNA is mixed into a phosphate buffer (2×BBS, composed in particular of 50 mM BES (Cat No. B4554, Sigma), 280 mM NaCl, 1.5 mM Na2HPO4, adjusted to pH 6.95) with calcium chloride (2.5 M). After incubation for 15 minutes, the precipitate obtained is applied to the cells for 24 hours. The cells are then rinsed and incubated for a further 24 hours in a culture medium without antibiotics.
The cells are resuspended in a physiological buffer (HBSS for Hank's Buffered Salt Solution (Cat No. 14025100, Gibco, composed in particular of calcium chloride, magnesium chloride, magnesium sulfate, potassium chloride, monobasic potassium phosphate, sodium bicarbonate, sodium chloride, anhydrous dibasic sodium phosphate)) 48 hours after transfection and distributed into 96-well plates (100 000 to 200 000 cells per well) or into 384-well plates (20 000 to 40 000 cells per well). The fluorescence and luminescence readings are carried out at ambient temperature on a microplate reader, Mithras LB 940 (Berthold). The yield from transfection of the Lingo-1-eYFP, Lingo-2-eYFP, Lingo-3-eYFP or Lingo-4-eYFP construct is evaluated by reading the fluorescence of the eYFP emitted at 530-540 nm after excitation at 480 nm. The yield from transfection of the Lingo-1-RLuc, Lingo-2-RLuc, Lingo-3-RLuc or Lingo-4-RLuc construct is evaluated by reading the luminescence (1 second) obtained immediately after the addition of the coelenterazine substrate (5 μM).
The measurement of the BRET signal is carried out immediately after the addition of coelenterazine. […] The energy transfer which takes place in the fusion protein between the Rluc and the eYFP causes the appearance of a fluorescence signal with a maximum emission at 530-540 nm, characteristic of the spectral properties of eYFP. […]
The BRET reading was carried out at ambient temperature on a microplate reader, Mithras LB 940 (Berthold), using the new BRET filters. […]

B1: Lingo-1-HA: whole human Lingo-1 protein (amino acids 1-620) tagged with HA (protein)
chain: CPPRCECSAQDRAVLCHRKRFVAVPEGIPTETRLLDLGKNRIKTLNQDEFASFPHLEELELNENIVSAVEPGAFNNLFNLRTLGLRSNRLKLIPLGVFTGLSNLTKLDISENKIVILLDYMFQDLYNLKSLEVGDNDLVYISHRAFSGLNSLEQLTLEKCNLTSIPTEALSHLHGLIVLRLRHLNINAIRDYSFKRLYRLKVLEISHWPYLDTMTPNCLYGLNLTSLSITHCNLTAVPYLAVRHLVYLRFLNLSYNPISTIEGSMLHELLRLQEIQLVGGQLAVVEPYAFRGLNYLRVLNVSGNQLTTLEESVFHSVGNLETLILDSNPLACDCRLLWVFRRRWRLNFNRQQPTCATPEFVQGKEFKDFPDVLLPNYFTCRRARIRDRKAQQVFVDEGHTVQFVCRADGDPPPAILWLSPRKHLVSAKSNGRLTVFPDGTLEVRYAQVQDNGTYLCIAANAGGNDSMPAHLHVRSYSPDWPHQPNKTFAFISNQPGEGEANSTRATVPFPFDIKTLIIATTMGFISFLGVVLFCLVLLFLWSRGKGNTKHNIEIEYVPRKSDAGISSADAPRKFNMKMI
modifications: left off: small tags and cut ends
notes: whole human Lingo-1 protein (amino acids 1-620) tagged with HA
  BRET signal obtained between Lingo-1-RLuc and Lingo-1-YFP: significantly decreased

B2: DN-Lingo-1-HA: HA-tagged dominant negative of Lingo-1 (amino acids 1-577, without cytoplasmic portion), known Lingo-1 inhibitor (protein)
chain: CPPRCECSAQDRAVLCHRKRFVAVPEGIPTETRLLDLGKNRIKTLNQDEFASFPHLEELELNENIVSAVEPGAFNNLFNLRTLGLRSNRLKLIPLGVFTGLSNLTKLDISENKIVILLDYMFQDLYNLKSLEVGDNDLVYISHRAFSGLNSLEQLTLEKCNLTSIPTEALSHLHGLIVLRLRHLNINAIRDYSFKRLYRLKVLEISHWPYLDTMTPNCLYGLNLTSLSITHCNLTAVPYLAVRHLVYLRFLNLSYNPISTIEGSMLHELLRLQEIQLVGGQLAVVEPYAFRGLNYLRVLNVSGNQLTTLEESVFHSVGNLETLILDSNPLACDCRLLWVFRRRWRLNFNRQQPTCATPEFVQGKEFKDFPDVLLPNYFTCRRARIRDRKAQQVFVDEGHTVQFVCRADGDPPPAILWLSPRKHLVSAKSNGRLTVFPDGTLEVRYAQVQDNGTYLCIAANAGGNDSMPAHLHVRSYSPDWPHQPNKTFAFISNQPGEGEANSTRATVPFPFDIKTLIIATTMGFISFLGVVLFCLV
modifications: left off: small tags and cut ends
  BRET signal obtained between Lingo-1-RLuc and Lingo-1-YFP: significantly decreased
HEK-293, Lingo-1-RLuc 250 ng/Lingo-1-YFP 1500 ng, new filters, HA-tagged protein at 0-2600 ng plasmid
  BRET signal obtained between the Lingo-1-RLuc and Lingo-1-YFP proteins: significantly decreased
